The results in this text go back to paper PMC3526290.

The test system of the data set is H3/H4 (FM label on H4 C71) (Xenopus laevis). In words: EMSA. The note with it: 0.2 uM H3/H4, 0.4 uM DNA, no chaperone, disome and tetrasome, EMSA deposition: 10 mM Tris, 150 mM NaCl, 0.5 mM TCEP, pH 8.0, on ice, 0.2x TBE native gel, FRET: 10 mM Tris pH 7.5, 150 mM KCl, 2 mM MgCl, 1% glycerol.

For the substance 80 bp 601 DNA, the binding signal was 44 % tetrasomes.
